This is an account of results in US20120252071A1 (ROCHE DIAGNOSTICS OPERATIONS, published 2012).

Numbering of substitutions follows the chain as printed. Names and notes keep the numbering of the source.

Data set [1] deals with the molecule itself. The experiment in a line: non-reducing SDS-PAGE after 16 h at 37 C without reducing agent (self-association by disulfide bonds). As for the experimental part: Samples of T7 variants were prepared according to a procedure described in Example 4. T7 RNA polymerase and variants thereof were analyzed by gel electrophoresis on polyacrylamide gels containing sodium dodecylsulphate (SDS). Gradient gels (NuPAGE, 4-12%, Bis-Tris Gel, Invitrogen) were used. Typically, protein samples (0.26 mg/ml, 18 μl) were mixed with 6 μl of NuPAGE LDS (Lithium dodecyl sulfate; LDS may also be substituted by sodium dodecyl sulfate) sample buffer, (4×, Invitrogen). After heating for 2 min at 85° C., samples (20 μl) were applied on the gel. The total amount of protein in a single lane of the gel was between 1 μg and 3 μg. Gels were run in SDS Running Buffer (1×MES, Invitrogen) at 200 V for 1 hour.
Further, samples of wild-type T7 and T7 variants (0.2 to 0.3 mg/ml each) were incubated at 37° C. for 16 hours in 25 mM Tris/HCl, pH 7.5 (adjusted at 25° C.), 0.1 mM EDTA, 100 mM NaCl. Aliquots were removed and applied on the SDS gels under reducing conditions or under non-reducing conditions. After incubation a sample of each treated preparation was subjected to SDS polyacrylamide gel electrophoresis as described in Example 5. Results are depicted in FIG. 2 (reducing reagents absent) and FIG. 3 (10 mM DTT added).
With reference to FIG. 2 (reducing reagents absent), and in reference to Examples 5, 6, and 7, a stained SDS polyacrylamide gel is shown. […]

Data set [2] concerns the molecule itself. As to the kind of experiment: non-reducing SDS-PAGE (self-association by disulfide bonds).

B1: T7 variant #8 [Cys125Ser, Cys347Ser, Cys492Ser, Cys515Ser, Cys723Ser, Cys839Ser] including His6-tag (enzyme)
chain: MNTINIAKNDFSDIELAAIPFNTLADHYGERLAREQLALEHESYEMGEARFRKMFERQLKAGEVADNAAAKPLITTLLPKMIARINDWFEEVKAKRGKRPTAFQFLQEIKPEAVAYITIKTTLASLTSADNTTVQAVASAIGRAIEDEARFGRIRDLEAKHFKKNVEEQLNKRVGHVYKKAFMQVVEADMLSKGLLGGEAWSSWHKEDSIHVGVRCIEMLIESTGMVSLHRQNAGVVGQDSETIELAPEYAEAIATRAGALAGISPMFQPCVVPPKPWTGITGGGYWANGRRPLALVRTHSKKALMRYEDVYMPEVYKAINIAQNTAWKINKKVLAVANVITKWKHSPVEDIPAIEREELPMKPEDIDMNPEALTAWKRAAAAVYRKDKARKSRRISLEFMLEQANKFANHKAIWFPYNMDWRGRVYAVSMFNPQGNDMTKGLLTLAKGKPIGKEGYYWLKIHGANCAGVDKVPFPERIKFIEENHENIMASAKSPLENTWWAEQDSPFCFLAFSFEYAGVQHHGLSYNCSLPLAFDGSCSGIQHFSAMLRDEVGGRAVNLLPSETVQDIYGIVAKKVNEILQADAINGTDNEVVTVTDENTGEISEKVKLGTKALAGQWLAYGVTRSVTKRSVMTLAYGSKEFGFRQQVLEDTIQPAIDSGKGLMFTQPNQAAGYMAKLIWESVSVTVVAAVEAMNWLKSAAKLLAAEVKDKKTGEILRKRSAVHWVTPDGFPVWQEYKKPIQTRLNLMFLGQFRLQPTINTNKDSEIDAHKQESGIAPNFVHSQDGSHLRKTVVWAHEKYGIESFALIHDSFGTIPADAANLFKAVRETMVDTYESSDVLADFYDQFADQLHESQLDKMPALPAKGNLNLRDILESDFAFA
notes: also called six-fold mutant; sextuple T7 variant; not shown: N-terminal His6-tag with linker
On to B1, for which, in data set [1], the binding result is on record as “no binding (tested: 2.9 µg of protein per lane)”.

B2: T7 variant #32 [Cys723Ser, Val426Leu, Ala702Val, Val795Ile] (enzyme)
chain: B1 chain with S125C, S347C, V426L, S492C, S515C, A702V, V795I, S839C
notes: not shown: N-terminal His-tag
For B2, the binding result in data set [2] is “no binding”.

B3: T7 variant #30 [Cys723Ser, Val426Leu, Val795Ile] (enzyme)
chain: B1 chain with S125C, S347C, V426L, S492C, S515C, V795I, S839C
notes: not shown: N-terminal His-tag
With B3, the binding result in data set [2] is recorded as “no binding”.

B4: T7 variant #33 [Cys125Ser, Cys347Ser, Cys492Ser, Cys515Ser, Cys723Ser, Cys839Ser, Val426Leu, Ala702Val, Val795Ile] (enzyme)
chain: B1 chain with V426L, A702V, V795I
notes: not shown: N-terminal His-tag
Turning to B4, in data set [2], the binding result was “no binding”.

B5: T7 variant #36 [C125S, C347S, C492S, C515S, C723S, C839S, V426L, V650L, A702V, V795I] (enzyme)
chain: B1 chain with V426L, V650L, A702V, V795I
notes: not shown: N-terminal His-tag
As to B5, the binding result in data set [2] is given as “no binding”.

B6: T7 variant #35 [Cys723Ser, Val426Leu, Val650Leu, Ala702Val, Val795Ile] (enzyme)
chain: B1 chain with S125C, S347C, V426L, S492C, S515C, V650L, A702V, V795I, S839C
notes: not shown: N-terminal His-tag
Take B6: in data set [2], the binding result is “no binding”.

B7: T7 variant #26 [Cys723Ser, Ala702Val, Val795Ile] (enzyme)
chain: B1 chain with S125C, S347C, S492C, S515C, A702V, V795I, S839C
notes: not shown: N-terminal His-tag
For B7, the binding result in data set [2] was “no binding”.

B8: T7 variant #28 [Cys723Ser, Val426Leu, Ala702Val] (enzyme)
chain: B1 chain with S125C, S347C, V426L, S492C, S515C, A702V, S839C
notes: not shown: N-terminal His-tag
With B8, the binding result in data set [2] is “no binding”.
